Test results from publication PMC7979870.

Target: ALFA peptide and His8-tagged ZAC orthologue from Oryzias latipes (OlZAC) (Oryzias latipes)
Assay: negative staining EM with 2D classification; purified OlZAC reconstituted into NAPol amphipol, stained with 2% uranyl acetate, Talos L120C at 120 kV, 2D classification in RELION 3.0

## ALFA peptide and His8-tagged ZAC orthologue from Oryzias latipes (OlZAC) (receptor)
  stoichiometry N: 5
